Data taken from patent US20240150451A1.

Molecular target: PHF-tau (paired helical filament tau; sarcosyl insoluble prep from human AD brain) (human) (UniProt P10636)
Assay: SPR (ProteOn), mAb on PHF-tau, bivalent analyte fit; apparent affinity (avidity)

PHF-tau (paired helical filament tau; sarcosyl insoluble prep from human AD brain) (human), sequence (P10636 other isoform, or with tags, fused parts or gaps limits assumed): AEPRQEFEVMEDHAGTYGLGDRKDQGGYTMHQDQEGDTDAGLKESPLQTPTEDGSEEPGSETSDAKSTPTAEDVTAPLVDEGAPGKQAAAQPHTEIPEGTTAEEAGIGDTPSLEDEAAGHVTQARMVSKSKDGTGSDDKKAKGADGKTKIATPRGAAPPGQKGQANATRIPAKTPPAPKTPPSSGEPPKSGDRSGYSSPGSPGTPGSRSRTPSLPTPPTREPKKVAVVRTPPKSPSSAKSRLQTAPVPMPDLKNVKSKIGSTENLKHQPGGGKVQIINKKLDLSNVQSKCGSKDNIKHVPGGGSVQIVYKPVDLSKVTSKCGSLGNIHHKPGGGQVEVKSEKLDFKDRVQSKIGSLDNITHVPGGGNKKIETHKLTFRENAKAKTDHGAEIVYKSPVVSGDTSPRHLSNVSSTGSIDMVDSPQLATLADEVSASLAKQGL

Kd: 0.291 nM
Substance: HT7 (reference mAb) (antibody)
